Measurements from the DeepSol protein solubility set.

Experiment: soluble on expression in E. coli; label from the status in PepcDB or PDB records

Sequence | soluble on expression in E. coli
MSLSENPGATAQILSYNHVLSQLNREKTDVTEAKSLLNTAETSLSSMSTSMNRVNALVLQAINGTSDKDNMSQSAEEIKGLLDVLISVANSEDDGRYVFSGSSTSVKPFTTDKTTGEIIYNGTTENKKFRVTDTLEVEVFHDGSAMTDVFNNIQKIVDAMKSGDKDALSALQETNSKNIEIITNSMTNIGGQKNGVTAYDNVLSSKIVDFSERKSNVEEVNMPEAVSNLNKTSIAYQAALQSSVMVQKLSILNYMEGHHHHHH | soluble
MSLSESAPTPRRERVIVGMSGGVDSSVSALLLLQQGYQVEGLFMKNWDEDDGTEYCTAREDLADAQAVCDRIGIKLHTANFAAEYWDNVFEHFLAEYKAGRTPNPDILCNREIKFKAFLDYALMLGADLIATGHYVRRRDRDGRTELLKGLDPNKDQSYFLHAVGGEQIARSLFPVGELEKPEVRAIAEKHGLATAKKKDSTGICFIGERRFTDFLKQYLPAQPGDIETTEGKVIGRHSGLMYHTIGQRQGLGIGGLKEAGDDPWYVLGKDLQRNVLLVGQGNDHPLLFSRALLASRIYWVNPVELERPRRLRAKVRYRQSDQDCVLEKTAEGYRAVFDEPQRAVTPGQSVVFYDGDVCLGGGVIETAEAWDFGGRPEGHHHHHH | soluble
MSLSETTQTSQSLYQALWNSADVLRSKMDANDYKSYLLGMVFYKYLSDKMLFFVAETMEEETESLDEALAVYRKYYEDEETHEDLLAVITDEMSYAIHPDLTFTALVERVNDGSFQLEDLAQGFRDIEQSDELYENLFEDIDLYSKKLGATPQKQNQTVAAVMKELAVLDVAGHAGDMLGDAYEYLIGQFATDSGKKAGEFYTPQPVAKLMTQIAFLGREDKQGFTLYDATMGSGSLLLNAKRYSRQPQTVVYFGQELNTSTYNLARMNMILHGVPIENQFLHNADTLDEDWPTQEPTNFDGVLMNPPYSAKWSASSGFMDDPRFSPFGKLAPKSKADFAFLLHGYYHLKQDNGVMAIVLPHGVLFRGNAEGTIRKALLEEGAIDTVIGLPANIFFNTSIPTTVIILKKNRTNRDVYFIDASKEFDKGKNQNIMTDAHIEKILNAYKSREDIDKFAHLASFEEIVENDYNLNIPRYVDTFEEEEVEPLTEIVAKINQTNATIESQTASLLDMLGQLHGTTPEADEELKAFVKAFKGEGHHHHHH | soluble
MSLSFKNNLKLLLSTQNVLIYILNSEEERLEYKIHLMIRQNIKKTIYCWNFIDGYYNNPNYLNKAIRNPLQAIEFIEQLNFPTSTIFFLKDFHVFINDISVIRKIKNLSRFLKQANSSIIISASEMQVPSLLKDFITVLEFPLPNYEEINLELHRLFKIMNVDSSIYSEYFHDLTLAYRGFSIEKIRISIAKLLTSNLSSTHLIKNILYEKRQLIEQTDEGHHHHHH | not soluble
MSLSFPQLHTVTSYSLLSSTVRIRSYVKQAKALGYQTLAITDINVLHGAVEFYEACQEAGIQPIIGLRLEYTPAEKEGHSELLLFAKNLKGYQQLMQLSSSKMTTEGPFYLAEHQSLLSDLFAVTLSAKGEVAQTFFEDEQQAVHAFQQLASYFDPQSLFVEHSFSMNQQRNPALFSFYQREQLPGVALQEVRHLTREEGFAVTVLESIKENNQLNITSQTPEIEGLNYLREAETTMEQMLQEGHHHHHH | not soluble
MSLSFSAKVKGEICRYIDISKEEALAQISAIMKVCGTLAFSGRQISFKMTTENPASARLMFTILKDYFDIHAKLMVKKSNSLKKNNIYMVVVTEEMGVKKLLEITGILREIDGIMSLDYHIDENLVDTEEKKKAYIRGAFIGGGSISNPEKTYHLEFVTHSQEYAEDLGKLINTFGLKAKVIQRKNSYIVYIKEGEQIVDLLNIIGAHTALLELENIRIMKEMRNNVNRLVNCETANLSKTVNAAVRQVESIKLIEREIGLARLPKNLREVAELRLTYPEESLKELGEMLEPPVGKSGVNHRLRKIEKIAEELRTGNEGHHHHHH | soluble
MSLSGCNGVPTSYVSDPVYSQAFVVTSGAPLPMLLMASAIQWNEDYAVTAKHTPFLRNVVHEGLGDVVFFKHKASSVPHWRQYVPGEAVTAVGFNSFMMPMQGKGHALSSLVRLEGTPGSVFYSVHDGPITKGMSGGPVFADDGKVVGINVAIIPTDEINAGKRPDLVGKDRISVFMSFSEIDKEWRRYQYLLAHKAKPKAPAAVKGYVAVAAKEGHHHHHH | soluble
MSLSGLHQADLEMVAAAYAKSNATIVTYGMGITQHNEGTANVRLICDLLMLRGNLGKPGAGICPLRGHSNVQGNRTVGITEKPSPAFLDKLQQTFGFTPPAHHGHDAVQAMQAMIAGSAKALLCLGGNFAVALPDPGQCFPAMGKLDLSVHIATKLNRSHLLVARETFLFPCLGRTELDMQDGLRQAITVEDSMSMVHASAGKLAPASEFLLSEPAIVAGMARATLPGSRVPWLELVADYDKIRDLIEQTVPGFDDYNARIRVPGGFRMPLAAAERQWLTPSGKAEFFVFPGLHEDKEVDGADVLRLITLRSHDQYNTTIYALDDRYRGVFGRRDVLFISPADLAARGLAHGDLVDIETVIGGRRLRYEKITAIEYKIANGTVGAYYPEANRLVPLDYLDVDSGTPSYKSVPVRVLRSSPAEGHHHHHH | not soluble
MSLSIIVASTMSDSGKSFITTGLVRILNAKPLKIQNMSLNSISTWDGGEIAFIQAYQAWGAGLRPERYMNPILLKIMGKGLEVIFMGSSLGIMSGNEYYNLATEKLWKKVSQFLSNDVVIEAAGGIGEPNFIDKDITAIKVMKEKRIPAILVLDIDRGGAFASAYGTYMMLPQSVRENLKGFIINKFRGDEKFLNDAIKWLEEKTGMRYLGYLPFFSEPPIMPEDSMNVYNFGDGNVEVAIIAYPYMSNFNEFYALVKSNARVSFVRKPKETAKADLVILPGSRNTLESLKWLVENGFVEQLRQRSMNILGICGGFQILGKKIVDPYGIEAGYPTEYEGLGIFDINVHYSKDKVVSMTTGISEYGEMNGYEIRRGVIKYMGEKPLLKITLRNGEKVSVEDGAKKDNIIGISVHGTLFSDGMKKLLKEFNINIHSQSMEEEIKQQAIRVEQFLRKYLHIDEIVEIYKEGHHHHHH | not soluble
MSLSIKMRLGKEFLIDDLKRIEAMRNHLADNIMLMADANEAWRIDQAVIAFKEIEKFNLVWLEEPIKPDDFKGYSYLRSLGKIPIAAGENLHNLAEFNQLIDVNGVDFLEPDLTTCGGITPFMKVAKLAEVNNLPVCSHGVHELHVHLLASCPNASYLEFHAWRIDEFIDSPLKVLNGYTEAPDLPGHGINFDFEKVEKYNVGEGHHHHHH | not soluble
MSLSILVTGATGTIGSLVTQGLASAGADVKAMVRQPGKRDFPAGVTEVVADLTDVSSMRVALSSVRTLFLLNAVTPDEVTQALIALNLAQEAGIERIVYLSVIHADTFTNVPHFTGKYTVERMIESLDIPATILRPAYFMQNDLMVQQTIQSYSVYPMPIGSAGVSMIDARDIADVAVAELLRRDEASSALDLVTLELVGPQALTGASVAQTWSSALDREIAYGGDDVAAFEGQLASYGPGWLAYDMRLMMAGIQKFGMQAAEGAVERLEAIIGHPLRSYEGFVREATAGEGHHHHHH | soluble
MSLSIQSGEILETVKMVADQNFDVRTITIGIDLHDCISSDINVLNQNIYNKITTVGKDLVTTAKYLSAKYGVPIVNQRISVTPIAQIAAATHADSYVSVAQTLDKAAKAIGVSFIGGFSALVQKGMSPSDEVLIRSIPEAMKTTDIVCSSINIGSTRAGINMDAVKLAGETVKRTAEITPEGFGCAKIVVFCNAVEDNPFMAGAFHGSGEADAVINVGVSGPGVVKAALENSDATTLTEVAEVVKKTAFKITRVGELIGREASKMLNIPFGILDLSLAPTPAVGDSVARILEEMGLSVCGTHGTTAALALLNDAVKKGGMMASSAVGGLSGAFIPVSEDEGMIAAAEAGVLTLDKLEAMTAVCSVGLDMIAVPGDTPAHTISGIIADEAAIGMINSKTTAVRIIPVTGKTVGDSVEFGGLLGYAPVMPVKEGSCEVFVNRGGRIPAPVQSMKNEGHHHHHH | soluble
MSLSISEKPLSELLRPKDFEDFVGQDHIFGNKGILRRTLKTGNMFSSILYGPPGSGKTSVFSLLKRYFNGEVVYLSSTVHGVSEIKNVLKRGEQLRKYGKKLLLFLDEIHRLNKNQQMVLVSHVERGDIVLVATTTENPSFVIVPALLSRCRILYFKKLSDEDLMKILKKATEVLNIDLEESVEKAIVRHSEGDARKLLNTLEIVHQAFKNKRVTLEDLETLLGNVSGYTKESHYDFASAFIKSMRGSDPNAAVYYLVKMIEMGEDPRFIARRMIIFASEDVGLADPNALHIAVSTSIAVEHVGLPECLMNLVECAVYLSLAPKSNSVYLAMKKVQELPVEDVPLFLRNPVTEEMKKRGYGEGYLYPHDFGGFVKTNYLPEKLKNEVIFQPKRVGFEEELFERLRKLWPEKYGGESMAEVRKELEYKGKKIRIVKGDITREEVDAIVNAANEYLKHGGGVAGAIVRAGGSVIQEESDRIVQERGRVPTGEAVVTSAGKLKAKYVIHTVGPVWRGGSHGEDELLYKAVYNALLRAHELKLKSISMPAISTGIFGFPKERAVGIFSKAIRDFIDQHPDTTLEEIRICNIDEETTKIFEEKFSEGHHHHHH | soluble
MSLSIYKDINIASAKPSLKERKNIKHYALDHLNIDEKNNAPLFKTLLEDAMRVSSKEILLIVGGSSFYLKSILEGLSRMPKLSGEEVVKIEREIATLSNPYIFLKSIDPNMAFKIHPNDTYRTHKALEIFYATCTPPSEYFKANPKKPFEHAISLFALSIEKSALHNNIKRRTKNMLHSGLVEEIKALYTQYPKDSQPFKAIGVKESVLFLEKRLTLKELEEAITSNTMKLAKRQNTFNKTQFNNLYVGSAEEVRHAILKHSKSGIKGEGHHHHHH | not soluble
MSLSKELAVTPKQSLEAVVSYFRSAHKEPDSAVRAIHHQPASEGEFSEMPAAVDSRLRAALAKRGIERLYTHQADAFDQIQAGKHVVIVTPTASGKTLCYNLPVLNLLLRDEGARAMYLFPTKALAEDQLHEFQGAVEEMGSEIRAFTYDGDTPQDARRAIRSRANVVLTNPDMLHSGILPHHTRWARYFENLRYIVIDELHYYRGVYGSHLANLLRRLSRICEFYNSKPQFICCSATIANPKELAEALTGEPFELVERNGAPRGEKFFIFYNPPVVNRQLGIRRSYIAETRRMALKFIENNLQTLVFANNRLATEVLVTYLKDACDRGPIPSETVRGYRGGYLPRERREIEQSLRAGKIRAVVATNALELGIDIGSLDAVVMAGYPGTIASSWQRAGRAGRRQSTSAAVMVASSAPLDQYIVEHPDYFFGRSPEHAYINPENLEIFLAHLKCAAFELPLRDDEKFGRHDLAEICRYLEEAGFLHHSAAAWHWTSDTYPADATSLRSVTSDNFVVVDITGEAKVIAEVSFPTALTTLHEKAIYLHEARQFHVERFDYDQRKAYVKSVDCDYYTDAIDYTQVKVLEEMEGEPQNGARRLHGDVRVTRQIVGFKKIKFYTMENVGAGKLNMPEQEMHTTAFWLHFPAAFLARFAEFTPTEKQSGISGLGNALRTVASLLLMCDPRDLGVALSEEIAGGLEAFEPNLYLYDNYPGGIGQSGPLYRLAPQLLRQTAGLLAACACEAGCPSCVGPSGETGERGKLVAARILAELMGTAEQITAEGHHHHHH | soluble
MSLSKIIPFREEIFHQINQILESQKAFIFLWGKSGSGKSVLLQRLAKKYNVDFINENFKDQSFLKEKIEFLISQGQSLIILDEVGMYDYAMLESIRIYSDSISFVLSSHKKLNILKKEHFKSRLSACFKLKNISLLELDDYIKLKFGMNFSNKCLKFLQKISQGNLRYIDKTLKSFYEINSFFDKNKSQEYILKLSALENGLLREGHHHHHH | soluble
MSLSKKTQINLKIERAKEEDLPKLVDLYLRAYKGLEEYAYTHPKDVKSYLKWLWNRDKEGIFLAKVDGKIVGFGAGDANWFSRREGKRVGAIHEIVVDPEYQGHGVGTALMNTILEYFKKKGLDTAELWVGDENYKAINFYKKFGFQESGRYNYWIRMIKGIITITTDPNSSSVDKLAAALEHHHHHH | soluble
